Target: microtubules polymerised from bovine brain tubulin (bovine) (UniProt Q6B856)
Assay: TIRF microscopy of binding to immobilised microtubules

reduction in MT binding against wildtype augmin: 50%
Substance: augmin octamer lacking the N-terminal CH domain of Haus6 (residues 1-160) (from UniProt Q6DCY9;Q0IHJ3) (complex)

From publication PMC12578939
